{"source": "patent US20030157712A1", "about": "“Methods for determining cell responses through EphB receptors” (priority 1997, published 2003)", "molecules": {"B1": {"name": "ephrin-B1/Fc dimers: disulfide-linked immunoglobulin Fc fusion form of ephrin-B1 (protein)", "chain": "LAKNLEPVSWSSLNPKFLSGKGLVIYPKIGDKLDIICPRAEAGRPYEYYKLYLVRPEQAAACSTVLDPNVLVTCNRPEQEIRFTIKFQEFSPNYMGLEFKKHHDYYITSTSNGSLEGLENREGGVCRTRTMKIIMKVGQDPNAVTPEQLTTSRPSKEADNTVKMATQAPGSRGSLGDSDGKHETVNQEEKSGPGASGGSSGDPDGFFNSK", "modifications": "left off: a dimerising Fc or GST"}}, "key": {"[1]": {"target": "T1, EphB2 (Homo sapiens, UniProt P29323)", "T1 construct": "EphB2 receptor immunoprecipitates (from HRMEC); endogenous in cells; host or cells: HRMEC", "T1 sequence (P29323 19-1055)": "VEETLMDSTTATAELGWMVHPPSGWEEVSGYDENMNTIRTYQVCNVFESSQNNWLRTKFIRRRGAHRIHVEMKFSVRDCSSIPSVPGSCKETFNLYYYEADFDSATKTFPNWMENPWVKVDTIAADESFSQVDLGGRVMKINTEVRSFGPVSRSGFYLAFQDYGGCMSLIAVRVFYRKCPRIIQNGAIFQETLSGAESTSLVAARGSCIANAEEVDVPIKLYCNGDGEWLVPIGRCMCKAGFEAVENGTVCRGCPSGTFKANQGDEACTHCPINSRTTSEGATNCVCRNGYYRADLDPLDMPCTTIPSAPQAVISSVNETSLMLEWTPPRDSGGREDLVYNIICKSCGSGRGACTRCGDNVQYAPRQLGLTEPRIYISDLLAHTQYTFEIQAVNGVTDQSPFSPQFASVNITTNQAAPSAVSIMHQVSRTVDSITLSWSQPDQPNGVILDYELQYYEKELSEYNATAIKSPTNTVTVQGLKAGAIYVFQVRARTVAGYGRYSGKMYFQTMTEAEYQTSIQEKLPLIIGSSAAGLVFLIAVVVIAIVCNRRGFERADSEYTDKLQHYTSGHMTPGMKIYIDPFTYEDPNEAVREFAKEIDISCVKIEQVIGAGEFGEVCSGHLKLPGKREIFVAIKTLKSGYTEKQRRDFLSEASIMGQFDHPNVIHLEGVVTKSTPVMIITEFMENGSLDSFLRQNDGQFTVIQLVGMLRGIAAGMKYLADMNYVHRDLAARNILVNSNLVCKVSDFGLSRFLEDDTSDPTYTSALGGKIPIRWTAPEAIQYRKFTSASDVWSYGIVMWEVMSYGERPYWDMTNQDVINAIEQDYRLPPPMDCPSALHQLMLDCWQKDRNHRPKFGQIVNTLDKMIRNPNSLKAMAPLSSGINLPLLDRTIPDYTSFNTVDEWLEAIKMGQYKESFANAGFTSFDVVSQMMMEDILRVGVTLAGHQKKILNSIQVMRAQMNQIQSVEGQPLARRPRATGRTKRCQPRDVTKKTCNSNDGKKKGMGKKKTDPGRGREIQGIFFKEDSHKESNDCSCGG", "assay": "EphB2 immunoprecipitation and phosphotyrosine immunoblot", "type": "cell-based", "conditions": "HRMEC; Fc fusion proteins 500 ng ml^−1", "procedure": "Ligand stimulation and immunoprecipitation of endogenous EphB receptors. Primary HRMEC were used at passages 3-6, as described (12). P19 cells were cultured as recommended (ATCC, Rockville, Md.). Ninety min prior to ligand stimulation, cells (2×10^5cells/60 mm dish) were plated on Matrigel-(Collaborative Biomedical Products, Becton Dickinson, Bedford, Mass., as recommended) or fibronectin-coated (29) dishes. Ligand (ephrin-B1/Fc) or control (ORF/Fc) (30) multimers were generated by preincubation with anti-Fc at a fixed ratio of 0.1× the indicated concentrations of Fc fusion proteins [50 ng ml^−1 anti-Fc for 500 ng ml^−1 Fc fusion protein]. If not otherwise indicated, Fc fusion proteins (ephrinB1/Fc or ORF/Fc) were used at 500 ng ml^−1 in the absence or presence of preclustering anti-Fc at 50 ng ml^−1. Cells were incubated with agonists at 37° C. for 10 min, or as described in the figure legends. Immunoprecipitations were conducted on either cell lysates (P19) or on Triticum vulgaris lectin affinity purified fractions of HRMEC (15) (needed to reduce the background from Matrigel). Precipitated proteins were analyzed by immunoblot (15).\nEphB1 and EphB2 immunoprecipitates from HRMEC stimulated with dimeric or multimeric (+anti-Fc) ephrin-B1/Fc were analyzed for receptor activation (anti-PY), and coprecipitation of heteromeric receptors (anti-EphB1, or anti-EphB2). […]"}, "[2]": {"tested_on": "human renal microvascular endothelial cells", "assay": "Solid phase cell attachment assay (HRMEC)", "type": "cell-based", "procedure": "Solid phase cell attachment assays. Forty-eight-well plates (Falcon) were coated with a layer of nitrocellulose (Schleicher & Schuell) and allowed to air dry as described (47). Coated wells were incubated overnight at 4° C. with PBS containing matrix proteins at the indicated concentrations alone (no addition, NA) or in combination with dimeric EphrinB1/Fc. Two hours prior to assay, wells were washed twice then blocked at 37° C. with 1% BSA. Serum starved cells were harvested in 2 mM EDTA in PBS (HEK293) or recovered by trypsinization (HRMEC), washed twice in serum free medium containing 1% BSA, then plated at a density of 0.7-1×10^5 cells per well. After incubation at 37° C. for 1 hour (or as specified), unattached cells were dislodged by 5 brisk slaps of the plate on a horizontal surface. Wells were gently washed with PBS until cells were not adherent to albumin-coated wells. Adherent cells were fixed with 2% glutaraldehyde, stained with 0.5% crystal violet (in EtOH), and quantified by OD reading at 570 nm. In experiments using competitive peptides or blocking antibodies, cells were preincubated with the indicated peptides (100 μM) or antibodies (10 μg/ml) for 15 min at RT before plating. Results representative of three independent experiments are given as OD values and represent the mean of duplicate or triplicate wells±SEM.\nTo determine if this ephrin-B1 surface density effect was mediated through integrins, a defined RGD peptide, GRGDSPK (SEQ ID NO:3), was applied to the surfaces in the absence and presence of ephrin-B1/Fc, or IgG1. Attachment assays of serum-starved microvascular endothelial cells to GRGDSPK (SEQ ID NO:3)-coated 48-well-plates were performed as described herein. Cells were preincubated for 15 min at 22° C. with blocking peptides (100 uM) or anti-integrin antibodies (10 ug/ml) before plating. Similar results were obtained using fibrinogen (1 ug/cm^2). HEK293 cells were transiently transfected with pSRα-EphB1 and attachment assays were performed after 48 hours as described herein."}, "[3]": {"tested_on": "HRMEC", "assay": "Endothelial assembly into capillary-like structures (HRMEC)", "type": "cell-based, human", "conditions": "HRMEC on Matrigel, two dimensional in vitro assay, 8 h", "procedure": "Endothelial assembly into capillary-like structures. Twelve well plates (Falcon) were coated with thin layers of Matrigel. HRMEC were plated at a density of 4×10^4 cells/well in DME containing 1% fetal bovine serum. Indicated agonists, control peptides, alone, or in combination with the EphB1/Fc antagonist (1000 ng ml^−1) (FIG. 5) were added at the time of plating. Cells were incubated at 37° C. for 8 h and photographed using phase microscopy (magnification 100×) (Diaphot-TMD, Nikon)."}, "[4]": {"conditions": "fibrinogen-coated nitrocellulose surfaces"}}, "data": [{"molecule": "B1", "values": [{"measurement": "tyrosine phosphorylation of EphB2", "setting": "[1]", "value": "stimulated"}, {"measurement": "endothelial cell attachment, plates pre-coated using standard procedures", "setting": "[2]; alone or in the presence of fibrinogen, no nitrocellulose", "value": "did not promote cell attachment"}, {"measurement": "cell attachment at densities higher than 300 ng/cm^2", "setting": "[2]; [4]", "value": "sharp decline"}, {"measurement": "coating density evoking maximal cell attachment", "setting": "[2]; [4]", "value": 300, "unit": "ng/cm^2"}, {"measurement": "endothelial attachment, ligand adsorbed to nitrocellulose-coated surfaces", "setting": "[2]; non-denaturing conditions, with fibrinogen, compared with Fc control human IgG1", "value": "promoted endothelial attachment"}, {"measurement": "endothelial capillary-like assembly", "setting": "[3]", "value": "did not"}]}]}
